According to patent EP4707292A2 (The University of North Carolina at Chapel Hill, dated 2026):

B1: Plasminogen (other)
chain: EPLDDYVNTQGASLFSVTKKQLGAGSIEECAAKCEEDEEFTCRAFQYHSKEQQCVIMAENRKSSIIIRMRDVVLFEKKVYLSECKTGNGKNYRGTMSKTKNGITCQKWSSTSPHRPRFSPATHPSEGLEENYCRNPDNDPQGPWCYTTDPEKRYDYCDILECEEECMHCSGENYDGKISKTMSGLECQAWDSQSPHAHGYIPSKFPNKNLKKNYCRNPDRELRPWCFTTDPNKRWELCDIPRCTTPPPSSGPTYQCLKGTGENYRGNVAVTVSGHTCQHWSAQTPHTHNRTPENFPCKNLDENYCRNPDGKRAPWCHTTNSQVRWEYCKIPSCDSSPVSTEQLAPTAPPELTPVVQDCYHGDGQSYRGTSSTTTTGKKCQSWSSMTPHRHQKTPENYPNAGLTMNYCRNPDADKGPWCFTTDPSVRWEYCNLKKCSGTEASVVAPPPVVLLPDVETPSEEDCMFGNGKGYRGKRATTVTGTPCQDWAAQEPHRHSIFTPETNPRAGLEKNYCRNPDGDVGGPWCYTTNPRKLYDYCDVPQCAAPSFDCGKPQVEPKKCPGRVVGGCVAHPHSWPWQVSLRTRFGMHFCGGTLISPEWVLTAAHCLEKSPRPSSYKVILGAHQEVNLEPHVQEIEVSRLFLEPTRKDIALLKLSSPAVITDKVIPACLPSPNYVVADRTECFITGWGETQGTFGAGLLKEAQLPVIENKVCNRYEFLNGRVQSTELCAGHLAGGTDSCQGDSGGPLVCFEKDKYILQGVTSWGLGCARPNKPGVYVRVSRFVTWIEGVMRNN
notes: also called PLG; PMG
B2: Fibrinogen gamma chain (other)
chain: YVATRDNCCILDERFGSYCPTTCGIADFLSTYQTKVDKDLQSLEDILHQVENKTSEVKQLIKAIQLTYNPDESSKPNMIDAATLKSRKMLEEIMKYEASILTHDSSIRYLQEIYNSNNQKIVNLKEKVAQLEAQCQEPCKDTVQIHDITGKDCQDIANKGAKQSGLYFIKPLKANQQFLVYCEIDGSGNGWTVFQKRLDGSVDFKKNWIQYKEGFGHLSPTGTTEFWLGNEKIHLISTQSAIPYALRVELEDWNGRTSTADYAMFKVGPEADKYRLTYAYFAGGDAGDAFDGFDFGDDPSDKFFTSHNGMQFSTWDNDNDKFEGNCAEQDGSGWWMNKCHAGHLNGVYYQGGTYSKASTPNGYDNGIIWATWKTRWYSMKKTTMKIIPFNRLTIGEGQQHHLGGAKQVRPEHPAETEYDSLYPEDDL
notes: also called FGG

What was measured:
[1] = molecular target: T1, Adeno-associated virus 8 (AAV8) virion (adeno-associated virus 8); assay: co-IP/LC-MS/MS, AAV8 + human serum vs PBS control
T1 construct: Intact virion with packaged vector genome; capsid of 60 subunits (VP1, VP2, VP3, overlapping products of one cap gene); also called AAV8/luc; AAV8 capsid

[2] = molecular target: T2, Adeno-associated virus 9 (AAV9) virion (adeno-associated virus 9); assay: co-IP with ADK9/LC-MS/MS, AAV9 + human serum vs control
T2 construct: Intact virion; capsid of VP1, VP2, VP3; also called AAV9/luc; AAV9 capsid

[3] = molecular target: T2, Adeno-associated virus 9 (AAV9) virion; assay: as above; remark: listed apart in the source

| Binder | fold change [1] | fold change [2] | Fold increase [3] |
| --- | --- | --- | --- |
| B1 | 1.48 fold | 1.48 fold | 3.23 fold |
| B2 | 1.6 fold | 1.6 fold | 4.85 fold |
